Laboratory results: patent publication US20210355204A1 (XOMA TECHNOLOGY, published 2021)

Tests used:
Test in all cases: SPR
[1] = target: T1, TGFβ1 (human, UniProt P01137 279-390)
T1 construct: mature; also called transforming growth factor beta 1

[2] = target: T2, TGFβ3 (human, UniProt P10600 301-412)
T2 construct: Commercial recombinant protein; also called transforming growth factor beta 3
T2 sequence (looked up): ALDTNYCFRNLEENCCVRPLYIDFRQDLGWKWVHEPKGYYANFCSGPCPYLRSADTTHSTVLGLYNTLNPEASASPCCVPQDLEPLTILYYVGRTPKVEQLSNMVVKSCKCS

[3] = target: T3, TGFβ2 (human, UniProt P61812 303-414)
T3 construct: Commercial recombinant protein; also called transforming growth factor beta 2
T3 sequence (looked up): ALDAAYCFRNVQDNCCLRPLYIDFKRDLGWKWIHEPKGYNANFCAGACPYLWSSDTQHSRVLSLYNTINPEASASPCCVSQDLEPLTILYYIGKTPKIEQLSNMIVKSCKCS

Measured: binding result

T1 sequence (P01137 279-390 limits assumed): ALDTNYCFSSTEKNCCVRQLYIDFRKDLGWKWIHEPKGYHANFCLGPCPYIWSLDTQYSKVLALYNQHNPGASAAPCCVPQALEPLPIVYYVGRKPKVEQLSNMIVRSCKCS

B1: TGFβ-RI (recombinant form) (receptor, UniProt P36897 34-126, looked up)
chain: LQCFCHLCTKDNFTCVTDGLCFVSVTETTDKVIHNSMCIAEIDLIPRDRPFVCAPSSKTGSVTTTYCCNQDHCNKIELPTTVKSSPGLGPVEL
notes: also called TGFβ receptor type 1 protein; TGFβ-R1
no binding: [1] | [2] | [3]
